Assay results as given in the DeepSol protein solubility set.

Assay: soluble on expression in E. coli; label from the status in PepcDB or PDB records

Sequence | soluble on expression in E. coli
MSLFHDVRFPVSLSFGARGGPERRTEIVTLANGAEERNTPWAHSRRRFDAGMGLRSLDDLETVIAFFEARAGQMHAFRWKDWSDFKSCRPSASPAPTDQLLGMGDETTATFQLVKHYGTGGDTYARPITRPVAGTVQVAVGGSPVTEGVEWSVDTATGMVTFTHPPDVGGEVTAGFEFDVPVRFDTDRIETSLASFNAGEVPDLPVVEVRPEGHHHHHH | soluble
MSLFLSNVILHQLRKNDNDELVVNYRAESLRNDTSTENLVAELHRVFNAKAGKGFGCFKSDSEFQLWLQEMRRGTLPFYEFSQQSAQRLKNELAKYPFADEGILVMAEYQSLATDYLFIGLLPLNQSLKVTEGLDISATDYLDINKMDIVARIDLSSYETDKESKRYLSYIKGRVGRKVADFFLDFLQADIGLDTKQQNQVLMQAVEDFCADAKFEKEEVISYKKQVYEYCNDQIKAGDEVRVQELSGELPPSNEGVNFFDFTREQGYQLEESFPADRSTVRKLTKYVGAGGGLNLSFDSLLLGERVFYDPETDTLTIKGTPPNLEHHHHHH | not soluble
MSLFSDVAETSSFVFAVAGADDEVVLETIRLALKQKLGKFLLFGKKEDKTLTANESVTWIQTDTAEAAAQGAILAVKNKEADILVKGFIPTATLMHHVLKKENGLRTDQLLSQIAIFDIPTYHKPLLITDCAMNVAPKTKEKIAITENALAVAHQIGITNPKIALLSAVEEVTAKMPSTLEAQEVVQHFGNQISVSGPLALDVAISKEAALHKGITDSSAGEADILIAPNIETGNALYKSLVYFAGAKVGSAVVGAKVPIVISSRNDSPENKLASFILTVRLVEKEGHHHHHH | soluble
MSLGAALSDTNYAVIYDLHSHTTASDGLLTPETLVHRAVEMRVGTLAITDHDTTAAIPAAREEISRSGLALNLIPGVEISTVWENHEIHIVGLNIDIAHPAMRDFLAQQTERRQARGRLIAERLEKAHIPGAWEGALRLANGGAVTRGHFARFLVECGKAATMADVFKKYLARGKTGYVPPQWCTIEQAIDVIHHSGGKAVLAHPGRYDLSAKWLKRLVAHFADHHGDAMEVAQCQQSPNERTQLATLARQHHLWASLGSDFHQPCPWIELGRKLWLPAGVEGVWQTWEQPQISEGHHHHHH | soluble
MSLGAQTLEYWVYSDFAQGEALALQQDFIKEFQESHPGVTVNIVGKGDDDLTAGQIAGAASGNLPDVFMNAVGVGAQLVDVGALANIHDKWMAMPEEFRAQFNKGAVENCAPRPEEMYCIPYTGYGTLLFRNLTVLEEAGIDTSAPPADWADWLAQMEKVKAAGKFAIPDQALVFNSIAEMYGVTGDVSTWGIDWESKTTRIDPAVMTSVLEKFVAMQPLTSGTSRNDQATKDLFVTNQLAFHTIGPWVNPTYVEAVENSGLKYDFVLMPGETADKHGGIKNFEIVGVAPGENLDLAFEFATYITAKEQMARWAKLLSRYNSNDAAMAEADVAALPLVARSVAAVEVTMDVSPPYLIQPVPACYQSTVVDYVSATADGEFTPEEGAAEMIAELNDCLAGEGHHHHHH | soluble
MSLGDRFYDLISALHKSVRGSAPDAALYWYARILTAGGDPLYVARRLLAIASEDVGNADPRAMQVALAAWDCFSRVGAYEGERAIAQAIIYLSVAPKSNAVYTAFNTAKQQAKDLPDYDVPPHLRNAPTNLMKELGYGTEYRYAHDEPNAYAAGENYFPPELKDTQYYFPTNRGMEIQIKEKLERLREQDKSTEGHHHHHH | soluble
MSLGIGHPMWVGWCIIIAMRSIPASVESSVLRWARESCGLTEVAAARKLGLPDDRVAAWEVGEVVPTIAQLRKAAEVYKRSLAVFFLSEPPEGFDTLRDFRRLDGAASGQWTPGLHEEFRRAHTQRDFALELADAEDREIPGAWRLPLSGDEADADIAARIRKALIEVSPLPIPVASVDPYEHLNAWVSAIETSGVLVLATRGGKVAIDEMRGMCLYFDELPVIVLNGSDHPRPRLFSLLHEFVHVVLHTEGLCDVIADAHPSTQDRSLEARCNAIAAAVLMPADVVRARPEVIVRSETPSSWDYESLRPVAAHFGVSAEAFLRRLSTLGIVPVEVYRQRRAEFIAAHEDEAEGHHHHHH | soluble
MSLGLGSSNRQTDDWNAKLYDERHRFVSAYGEDLIQWLAPKEGECVLDLGCGTGDLTEQIHQLGSRVIGVDVSESMIEQAKGKFPHLDFQVAEATDLSFSEKFDAIFSNAVLHWIKDAEEALTVIYRSLKPGGRFVAEFGGKGNVETIVNTLADTMSQADSRWSKEELPWFFPSIGQYTSLMEQVGFRVTHALHFNRPTLLEDGDGIRHWLAMFAESVLEGKSETERAEIVRFVEAEVKDALFDGTNWWADYKRIRVVGMKQEGHHHHHH | not soluble
MSLGNGVGTCDLPPQFAYFFQFSHLSATRNLLCLDLDETLVCSKQRTPQTRETEDFYVVVEQRGKRYEFSVIKRPGLDVFLVSMAELYDLAIFTYAIKEYGDKIVNIIDPNRLIKYRMYRQHCVKYLVDKRHVIVKDLSRVGKPHSSILLIDNSASTGIWQRNNFLLVPSFYGDERDKVLYELKELLEGISKCKDFYTEIQSLRSVEGHHHHHH | soluble
MSLGNKRVLITGATGFIGGYLVDEALRRQYEVWAAVRPHSDRSRLTDSRIRFVEIDYRDPSDIARLADKIAPEGESAWHLVIHNAGITKARDTSLFREINAEQTKRFLIGLQGAKHCPERFVLMSSMGSYGAPPDDCQPLSSSSVPKPTTAYGESKLLAEQYVQTFVTIPYTIIQPTGVYGPHDQDYLMAIRSVDKGFDFSTGNTPQTLTFIYAEDLASAVFIAAEHPDAAGQKYIVSDGKEYTDIEFGRMIQHLLDRKNVCHLRIPLPLVKATCYIGQKWADISGTLTPLNLDKYAIIAQRNWRCDSSPIRAIGFSPRYNLEQGLAETIRWARTTGQIREGHHHHHH | soluble
MSLGNTGVASADYLTAPFYNPALVASFEEHDDFGLLLPAIGVNVRDSDESLATIDDLQDSIDEFEAAPIPSPGQIDQLNRYLDDLQGNAPLTASSSLGLAVAIPTKRFSTNLFARGYLELIARPNIADYLSTGPGNEVADTKKRYEDSSVTMAAFGYVEYGAALAKEFEIKEQRISFGVTPKIQQLTTYYVVPTVADFELDDYEESEHKESAFNLDFGVVWLKDKFQVALAVKDLLSQEIDLKDKNGQKQDVYELNTQVSAGVAYRSDFFTAAMDLDLTKQERFKSLDDETQFVRFGVEGNAWGWAQLRAGYEIDLEDTVENAFTAGIGISPFDVVSLDIAGSYAGENQFGVSGNLAFTFEGHHHHHH | not soluble
MSLGNVGHLITPAIPLDYGELLAAPVTSSESMAQLRGRWIVLSVADGPCAEVCRQNLYKTRQMRLMLNKEIPRVRRLLLLTDPGAADALADWLRQDEFLAVAGLAPTLREKLEKAVGGPLQPGQILLLDPLGNLMMYYDADFDPYGVLKDLKHLLRASQIGEGHHHHHH | soluble
MSLGSDIPTLRAALARSDAWLVACFCAAWCDTCQQYRPKLLELARARPGHTFAWIDIEDHPDLLGEEDVENFPTLLVQAHGKVLFYGPMLPHIGHLERLLDSLDPQGREGHHHHHH | soluble
MSLGSLVIKKSIIAALVVALGIAGQSVQAESVPDETLQSEKVQTEKVQAEKTETDLFSPVEQIMNPFYPKYPPTKPATGEQAELIKRGEYLAKMGDCIACHTDVEGGTPAYAGGLPINTPFGLFYSPNITPDKETGIGNWTEKDFIRALKDGRDPKGRNYFPVFPYVYFSKITDDDARALYAYFMSIPPVKLKNKSLPFPFGVPGARFALWGWNLLFFFPQENSIEYDPDKSPEWNRGRYIVDTLGHCSMCHTPMNIFGSAKNRYYLTGSFIDGYWAPNITKYGLESASHQEVADVFKAGELINKAGPVAGPMAEVNHNSLSHLTEEDRLAIATYLKTVESEEYLGVSPSDLPPSVARGRQVYLKACLICHKDNKMGAPVIGDSASWYTRLKNSGLTGLYRHAIYGYNQMPVKGACVTCSDNDIISAVDYLLNASLTRSQWQDLASGGVKKYPASGKAVYNENCAVCHNEGKLGAPKIGDKVTWKPLIAQNMDVLIENTIRGKNHLPNGGCNHCSTDEVIEAIKYMVSQSKTEGNYSLWEGHHHHHH | not soluble
MSLGTAVLDLMANGVDMLCWADPFFPDPVLPEHISQAVIKSMENGSASHYTMPIGNPELKEKIALKLQRYNNLTVEAQRNILITPGSDSGLLFAMMPFINNDDEVLIHSPSYPSNFLNVELLGGKPISVELKAENNFQIDIKDFENKITEKTKMVILTNPNNPTGTVLRRESLQAIADFIIAHDLILVVDQAFEDAIFDEIEFISIASLPGMWERTVSVFSFSKGMGLSGFRVGYLVADAQIVDVLFGCTVNVVGATNTSSQAGMIAALDEPSFMGEYTQIFERRRKVVFEMMNAIPGVCMVMPESGFLSWIDISKLGTSTFICDYLLQHAHVMVNSGVPYGQGGEGYIRLVHGCYKDDEKLYAVLTRIQQALMQLAKEGHHHHHH | not soluble
MSLGTSWQIGDVTIPNRVVVAPMAGVTNVAFRMICKAFGAGLVECEMISGQGIHYHNQRTLRMMAVNAQEHPMSIQIFGGTQETLVQAAQFVDQQTAADIIDINMGCPVNKVVNTDAGAKWLLDPQKVHDMVAAVVAAVKKPVTVKMRTGWDDHHIFAVDNALAAQRAGAAAVAMHGRTRKQMYQGQADWQILAEVAQHLTIPFMGNGDVRTPQDAQRMLNEVGADAVMIGRAVMGNPWLLQRINHYLATDELLAEPTPQEKTTIALEHLHKLCVAKGPVEGPRDFRNQVAYYLKGIPHTARTKVAITDATEEAVMHDLLVKFLERMTATIEGHHHHHH | not soluble
MSLGYWGVMGNCFRRLSLFGQPTQAKYEMLCSSDDLETEELTFFLDMTYKDFGVYQNDIISHQKDTETMKTLLGLLPMYKKTKLRHTVMERCLSNCPNHVKDALCVELMKAEKILQTMDVVFMKTLIGEFSMCTENLNQLLNKFATDQSTLSDVEKINSLIEIDGENSKRLLVELDPILHEETGLYQALPNVVTEAPSEKVKSIRVESEGESV | not soluble
MSLHEYELNQDLLAENKRLAEKNREALRESGTVAVNIMGAIGSGKTLLIERTIERIGNEVKIGAMLGDVVSKADYERVRRFGIKAEAISTGKECHLDAHMIYHRLKKFSDCDLLLIENVGNLICPVDFDLGENYRVVMVSVTEGDDVVEKHPEIFRVADLIVINKVALAEAVGADVEKMKADAKLINPRAKIIEMDLKTGKGFEEWIDFLRGILNVHSDSGQNEGGSHHHHHH | soluble
MSLHFLYYCSEPTLDVKIAFCQGFDKQVDVSYIAKHYNMSKSKVDNQFYSVEVGDSTFTVLKRYQNLKPIGSGAQGIVCAAYDAVLDRNVAIKKLSRPFQNQTHAKRAYRELVLMKCVNHKNIISLLNVFTPQKTLEEFQDVYLVMELMDANLCQVIQMELDHERMSYLLYQMLCGIKHLHSAGIIHRDLKPSNIVVKSDCTLKILDFGLARTAGTSFMMTPYVVTRYYRAPEVILGMGYKENVDIWSVGCIMGEMVRHKILFPGRDYIDQWNKVIEQLGTPCPEFMKKLQPTVRNYVENRPKYAGLTFPKLFPDSLFPADSEHNKLKASQARDLLSKMLVIDPAKRISVDDALQHPYINVWYDPAEVEAPPPQIYDKQLDEREHTIEEWKELIYKEVMNSEEKTKNGVVKGQPSPSGAAVNS | soluble
MSLHIVVIGAGIVGASTALELQRDGHRVTLVEPGQPGGPQAASFGNGAWLSPASVVPMSMPGLWKKVPGYLMDPLGPLTIRWTALPALAPWLLRFIAAGATVPKVEATARALKALLSDAPERHTALAAEAGLADLVERKGLLYAYPDRAAFEAEALAWRLRRDNGIVWRELDGPALKAFEPTLHPRYGFGALVEAGAHCVDPGAYVAGLVAFAESRGLTRIEAAATGFDIVGGRLQAVRTAKGSVPCDRAVIAAGIHSRALAAEAGDKVSLASERGYHVVVATPESGPHLPVMPSDGKMANTPTRAGLRASGQVELAAVAAAPNWKRADVLLDHLLNTYPGLPRQVPEARLSRWLGHRPSTPDGVPVIGQASACTDIVHAFGHGHVGLASGPITGRLVADIIAGRPPERDIRPYAAARFRREGHHHHHH | soluble
